Source: IntAct's records for PubMed 9311911

B1: Protein STE5 (Saccharomyces cerevisiae), P32917 (parent)
chain: MMETPTDNIVSPFHNFGSSTQYSGTLSRTPNQIIELEKPSTLSPLSRGKKWTEKLARFQRSSAKKKRFSPSPISSSTFSFSPKSRVTSSNSSGNEDGNLMNTPSTVSTDYLPQHPHRTSSLPRPNSNLFHASNSNLSRANEPPRAENLSDNIPPKVAPFGYPIQRTSIKKSFLNASCTLCDEPISNRRKGEKIIELACGHLSHQECLIISFGTTSKADVRALFPFCTKCKKDTNKAVQCIPENDELKDILISDFLIHKIPDSELSITPQSRFPPYSPLLPPFGLSYTPVERQTIYSQAPSLNPNLILAAPPKERNQIPQKKSNYTFLHSPLGHRRIPSGANSILADTSVALSANDSISAVSNSVRAKDDETKTTLPLLRSYFIQILLNNFQEELQDWRIDGDYGLLRLVDKLMISKDGQRYIQCWCFLFEDAFVIAEVDNDVDVLEIRLKNLEVFTPIANLRMTTLEASVLKCTLNKQHCADLSDLYIVQNINSDESTTVQKWISGILNQDFVFNEDNITSTLPILPIIKNFSKDVGNGRHETSTFLGLINPNKVVEVGNVHDNDTVIIRRGFTLNSGECSRQSTVDSIQSVLTTISSILSLKREKPDNLAIILQIDFTKLKEEDSLIVVYNSLKALTIKFARLQFCFVDRNNYVLDYGSVLHKIDSLDSISNLKSKSSSTQFSPIWLKNTLYPENIHEHLGIVAVSNSNMEAKKSILFQDYRCFTSFGRRRPNELKIKVGYLNVDYSDKIDELVEASSWTFVLETLCYSFGLSFDEHDDDDEEDNDDSTDNELDNSSGSLSDAESTTTIHIDSPFDNENATANMVNDRNLLTEGEHSNIENLETVASSVQPALIPNIRFSLHSEEEGTNENENENDMPVLLLSDMDKGIDGITRRSSFSSLIESGNNNCPLHMDYI
partner: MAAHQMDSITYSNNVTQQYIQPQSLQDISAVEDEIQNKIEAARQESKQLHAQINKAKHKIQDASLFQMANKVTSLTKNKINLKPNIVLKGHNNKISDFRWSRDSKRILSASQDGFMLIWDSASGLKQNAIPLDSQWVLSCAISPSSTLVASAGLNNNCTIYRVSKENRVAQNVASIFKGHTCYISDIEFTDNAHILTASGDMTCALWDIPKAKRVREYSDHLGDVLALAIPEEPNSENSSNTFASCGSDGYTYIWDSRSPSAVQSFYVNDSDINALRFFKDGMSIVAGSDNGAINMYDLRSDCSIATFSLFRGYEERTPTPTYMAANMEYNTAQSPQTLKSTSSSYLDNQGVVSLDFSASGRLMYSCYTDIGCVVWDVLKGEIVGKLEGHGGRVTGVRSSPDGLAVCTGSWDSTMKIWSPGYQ

Variants of: B1
Settings: with gbb_yeast STE4, P18851

Variant	effect of a mutation on the interaction
C177A;C180A	disrupting interaction
